This passage reports fold increase of binding with Par-3 PDZ2 against without results from PMC11507878.

The test has as its target GST-fused Par-6 CRIB-PDZ (UniProt O97111). As to the kind of experiment: pull-down.

On to “Par complex ΔCRIB-PDZ (full length aPKC with the Par-6 PB1 domain) (from UniProt A1Z9X0 1-606)”, for which the fold increase of binding with Par-3 PDZ2 against without was > 20 fold.
